Results reported in paper PMC12500691 (Frontiers in Cellular and Infection Microbiology, 2025).
Where no end group is shown, it is not given here.

T1: SARS-CoV-2 ORF7a (SARS-CoV-2 (Wuhan variant), UniProt P0DTC7 16-96)
T1 construct: also called open reading frame 7a; accessory protein ORF7a; not shown: twin strep tag, N-terminal, kept
T1 sequence: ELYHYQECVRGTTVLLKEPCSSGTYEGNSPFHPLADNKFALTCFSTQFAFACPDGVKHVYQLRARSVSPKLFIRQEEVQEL

B1: LL-37 (peptide)
peptide: LLGDFFRKSKEKIGKEFKRIVQRIKDFLRNLVPRTES
notes: also called synthetic LL-37; human antimicrobial peptide LL-37; source: synthetic peptide, bought: Invivogen
B2: gold-labeled LL-37 (peptide)
peptide: B1 peptide
modifications: also: directly conjugated with colloidal gold
notes: also called LL-37 directly conjugated with colloidal gold; source: synthetic peptide, bought: Invivogen; conjugated with colloidal gold

Assays:
SARS-CoV-2 ORF7a = target: T1, SARS-CoV-2 ORF7a; experiment: SPR; settings: both partners purified
SARS-CoV-2 ORF8 = target: T2, SARS-CoV-2 ORF8 (SARS-CoV-2 (Wuhan variant), UniProt P0DTC8 16-121); experiment: negative stain electron microscopy; settings: both partners purified
T2 construct: also called open reading frame 8; accessory protein ORF8; not shown: twin strep tag, N-terminal, kept
T2 sequence (P0DTC8 16-121): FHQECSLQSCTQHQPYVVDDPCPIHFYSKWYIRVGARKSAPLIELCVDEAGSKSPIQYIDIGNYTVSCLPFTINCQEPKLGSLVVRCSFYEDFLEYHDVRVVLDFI

Row | Binder | Kd (SARS-CoV-2 ORF7a) [nM] | stoichiometry N (SARS-CoV-2 ORF8)
1 | B1 | 138 | –
2 | B2 | – | 1
